Data set [1] deals with the molecule itself. Description: crystal structure.
Data set [2] concerns the molecule itself. The data set can be described thus: crystal structure. The source holds these as a separate data set.
Data set [3] addresses T1, Atg7 with residues 290–294 deleted (S. cerevisiae, UniProt P38862 1-630, deletion of residues 290–294).
T1 sequence (looked up): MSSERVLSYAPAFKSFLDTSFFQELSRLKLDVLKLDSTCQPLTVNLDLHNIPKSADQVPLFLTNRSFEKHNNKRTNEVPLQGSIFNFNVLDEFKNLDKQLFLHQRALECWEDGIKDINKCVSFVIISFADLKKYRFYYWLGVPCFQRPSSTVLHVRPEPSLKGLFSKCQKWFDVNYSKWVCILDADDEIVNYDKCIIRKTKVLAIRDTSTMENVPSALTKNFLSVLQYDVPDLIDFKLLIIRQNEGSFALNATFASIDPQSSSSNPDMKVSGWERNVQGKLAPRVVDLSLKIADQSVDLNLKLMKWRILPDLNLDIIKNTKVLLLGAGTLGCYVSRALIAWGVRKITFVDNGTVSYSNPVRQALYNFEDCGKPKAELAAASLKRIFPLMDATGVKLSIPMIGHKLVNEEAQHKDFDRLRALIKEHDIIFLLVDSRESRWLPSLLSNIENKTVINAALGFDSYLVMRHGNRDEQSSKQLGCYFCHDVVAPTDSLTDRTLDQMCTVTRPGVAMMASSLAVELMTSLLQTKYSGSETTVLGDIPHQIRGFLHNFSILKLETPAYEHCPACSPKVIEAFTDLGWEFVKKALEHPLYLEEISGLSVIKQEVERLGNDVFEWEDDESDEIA
The data set can be described thus: cross-linking.

Data set [4] has as its target T2, Atg7 P283D (S. cerevisiae, UniProt P38862 1-630, P283D).
T2 sequence (looked up): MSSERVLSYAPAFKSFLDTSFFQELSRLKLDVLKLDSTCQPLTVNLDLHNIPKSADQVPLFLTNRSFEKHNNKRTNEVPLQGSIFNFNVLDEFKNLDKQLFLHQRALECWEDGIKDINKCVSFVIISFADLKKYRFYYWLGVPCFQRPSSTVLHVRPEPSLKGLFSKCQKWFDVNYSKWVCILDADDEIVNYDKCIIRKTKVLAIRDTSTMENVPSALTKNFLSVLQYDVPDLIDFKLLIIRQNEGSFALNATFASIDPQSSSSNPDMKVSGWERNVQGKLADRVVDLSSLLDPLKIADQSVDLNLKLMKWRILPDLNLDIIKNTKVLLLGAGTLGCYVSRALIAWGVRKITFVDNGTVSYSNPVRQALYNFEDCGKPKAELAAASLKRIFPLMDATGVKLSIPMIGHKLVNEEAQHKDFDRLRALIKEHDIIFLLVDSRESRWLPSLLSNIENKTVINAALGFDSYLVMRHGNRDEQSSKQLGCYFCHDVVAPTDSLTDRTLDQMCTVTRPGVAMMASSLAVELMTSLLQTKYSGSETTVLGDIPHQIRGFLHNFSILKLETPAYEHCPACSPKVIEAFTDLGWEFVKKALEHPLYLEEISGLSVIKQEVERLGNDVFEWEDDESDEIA
Description: cross-linking.

In data set [5] the target is T3, Atg7 with a Gly-Gly-Ser-Gly insertion after Leu291 (S. cerevisiae, UniProt P38862 1-630, Gly-Gly-Ser-Gly insertion after Atg7’s Leu291).
T3 sequence (looked up): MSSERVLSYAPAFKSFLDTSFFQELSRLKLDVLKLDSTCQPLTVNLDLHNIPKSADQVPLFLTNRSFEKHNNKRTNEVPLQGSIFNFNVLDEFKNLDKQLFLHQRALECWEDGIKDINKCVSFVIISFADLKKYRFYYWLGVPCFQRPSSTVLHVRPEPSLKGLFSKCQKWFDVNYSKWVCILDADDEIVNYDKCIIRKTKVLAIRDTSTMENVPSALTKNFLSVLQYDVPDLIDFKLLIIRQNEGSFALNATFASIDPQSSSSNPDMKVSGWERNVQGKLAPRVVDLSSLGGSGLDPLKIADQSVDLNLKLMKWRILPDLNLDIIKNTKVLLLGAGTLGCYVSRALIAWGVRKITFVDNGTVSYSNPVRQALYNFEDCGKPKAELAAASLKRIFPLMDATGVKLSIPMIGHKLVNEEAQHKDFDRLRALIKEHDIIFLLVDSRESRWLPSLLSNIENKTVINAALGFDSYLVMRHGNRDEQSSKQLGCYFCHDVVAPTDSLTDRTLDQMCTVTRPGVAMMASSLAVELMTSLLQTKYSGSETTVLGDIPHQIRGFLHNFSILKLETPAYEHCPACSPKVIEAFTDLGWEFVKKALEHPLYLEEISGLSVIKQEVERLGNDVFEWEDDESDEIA
The data set can be described thus: cross-linking.

Substitutions are numbered along the chain they refer to. Numbers in names are those of the source. Like-named read-outs stand apart in the source and are kept apart here.

B1: Atg7 (residues 1–613) (enzyme, S. cerevisiae, UniProt P38862 1-613, looked up)
chain: MSSERVLSYAPAFKSFLDTSFFQELSRLKLDVLKLDSTCQPLTVNLDLHNIPKSADQVPLFLTNRSFEKHNNKRTNEVPLQGSIFNFNVLDEFKNLDKQLFLHQRALECWEDGIKDINKCVSFVIISFADLKKYRFYYWLGVPCFQRPSSTVLHVRPEPSLKGLFSKCQKWFDVNYSKWVCILDADDEIVNYDKCIIRKTKVLAIRDTSTMENVPSALTKNFLSVLQYDVPDLIDFKLLIIRQNEGSFALNATFASIDPQSSSSNPDMKVSGWERNVQGKLAPRVVDLSSLLDPLKIADQSVDLNLKLMKWRILPDLNLDIIKNTKVLLLGAGTLGCYVSRALIAWGVRKITFVDNGTVSYSNPVRQALYNFEDCGKPKAELAAASLKRIFPLMDATGVKLSIPMIGHKLVNEEAQHKDFDRLRALIKEHDIIFLLVDSRESRWLPSLLSNIENKTVINAALGFDSYLVMRHGNRDEQSSKQLGCYFCHDVVAPTDSLTDRTLDQMCTVTRPGVAMMASSLAVELMTSLLQTKYSGSETTVLGDIPHQIRGFLHNFSILKLETPAYEHCPACSPKVIEAFTDLGWEFVKKALEHPLYLEEISGLSVIKQEVER
modifications: catalytic Cys507 linked through bismaleimidoethane (BMOE) to Atg3 Cys234
With B1, the “stoichiometry N” value in data set [1] turned out to be 2.

B2: Atg7(1–613 C39S C195S C375A) (enzyme, S. cerevisiae, UniProt P38862 1-613, looked up)
chain: B1 chain with C39S, C195S, C375A
modifications: catalytic Cys507 linked through bismaleimidoethane (BMOE) to Atg10 Cys133
Turning to B2, the “stoichiometry N” value in data set [2] turned out to be 2.

B3: Atg10 (Cys133only, with C26A and C137A) (enzyme, S. cerevisiae, UniProt Q07879 1-167, looked up)
chain: MIPYQEWHSQLQSLYDSQIFHNWALAQDVHLNDEKDGLLLRLIPTRQLQKNTERIENKLLNHIELYLTYSKVYNEPLLLLRIWEEKSIDGIPMTKLMLPTDIESLLDVQGKFQLGLDTIINLEGSVWYSFHPCDTSAIVGDQAEFMSTYLRRWVSIFIFSWLGYEDS
modifications: Cys133 reacted with bismaleimidoethane (BMOE)
For the molecule B3, the binding result in data set [3], in data set [4] and in data set [5] was “binds” throughout.

These data come from paper PMC3515690 (Nature structural & molecular biology, 2012).
